Where a chain is given by its changes, count along the chain named.
What was measured:
His6CPS-6, Q95NM6 = target: T1, His6CPS-6, Q95NM6
T1 chain: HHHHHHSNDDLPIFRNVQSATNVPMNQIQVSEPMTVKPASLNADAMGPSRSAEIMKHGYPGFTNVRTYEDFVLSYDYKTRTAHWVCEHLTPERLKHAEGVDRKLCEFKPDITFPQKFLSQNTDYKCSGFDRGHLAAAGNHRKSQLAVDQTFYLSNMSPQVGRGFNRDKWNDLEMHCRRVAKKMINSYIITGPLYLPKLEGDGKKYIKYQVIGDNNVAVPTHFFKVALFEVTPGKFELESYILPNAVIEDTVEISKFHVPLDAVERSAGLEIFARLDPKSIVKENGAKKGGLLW

[1] = target: T2, ^35S-Methionine labeled CRN-1, Q9N3T2
T2 chain: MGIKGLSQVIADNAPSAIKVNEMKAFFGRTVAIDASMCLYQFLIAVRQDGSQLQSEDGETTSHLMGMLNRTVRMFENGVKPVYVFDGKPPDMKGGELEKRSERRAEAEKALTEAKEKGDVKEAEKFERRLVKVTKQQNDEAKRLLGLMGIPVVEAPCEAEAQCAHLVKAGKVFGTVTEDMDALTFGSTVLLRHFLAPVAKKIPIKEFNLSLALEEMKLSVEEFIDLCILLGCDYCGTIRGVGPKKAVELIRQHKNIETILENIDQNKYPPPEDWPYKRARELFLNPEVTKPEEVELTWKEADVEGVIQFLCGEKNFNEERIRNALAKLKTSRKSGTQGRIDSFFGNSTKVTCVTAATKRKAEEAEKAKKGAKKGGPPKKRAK

B1: CRN-1-His6 (protein)
chain: MGIKGLSQVIADNAPSAIKVNEMKAFFGRTVAIDASMCLYQFLIAVRQDGSQLQSEDGETTSHLMGMLNRTVRMFENGVKPVYVFDGKPPDMKGGELEKRSERRAEAEKALTEAKEKGDVKEAEKFERRLVKVTKQQNDEAKRLLGLMGIPVVEAPCEAEAQCAHLVKAGKVFGTVTEDMDALTFGSTVLLRHFLAPVAKKIPIKEFNLSLALEEMKLSVEEFIDLCILLGCDYCGTIRGVGPKKAVELIRQHKNIETILENIDQNKYPPPEDWPYKRARELFLNPEVTKPEEVELTWKEADVEGVIQFLCGEKNFNEERIRNALAKLKTSRKSGTQGRIDSFFGNSTKVTCVTAATKRKAEEAEKAKKGAKKGGPPKKRAKHHHHHH
His6CPS-6, Q95NM6
  nuclease activity (plasmid cleavage assay): complete plasmid degradation and approximately 500% increase in nuclease activity

B2: CRN-1(DY-AA) (protein)
chain: T2 chain with D233A, Y234A
His6CPS-6, Q95NM6
  CPS-6 nuclease activity (plasmid cleavage assay): continuing enhancement of CPS-6 nuclease activity, though less potently than the wild type CRN-1 protein

B3: full-length ^35S-methionine labeled CPS-6 (protein)
chain: MIGKVAGTAAIAGISFLAGKYSNDDLPIFRNVQSATNVPMNQIQVSEPMTVKPASLNADAMGPSRSAEIMKHGYPGFTNVRTYEDFVLSYDYKTRTAHWVCEHLTPERLKHAEGVDRKLCEFKPDITFPQKFLSQNTDYKCSGFDRGHLAAAGNHRKSQLAVDQTFYLSNMSPQVGRGFNRDKWNDLEMHCRRVAKKMINSYIITGPLYLPKLEGDGKKYIKYQVIGDNNVAVPTHFFKVALFEVTPGKFELESYILPNAVIEDTVEISKFHVPLDAVERSAGLEIFARLDPKSIVKENGAKKGGLLW
[1]
  gap-dependent endonuclease activity of CRN-1: it enhanced the gap-dependent endonuclease activity of CRN-1 by more than 200%
